Test results published in the Human Domainome abundance scans (Beltran et al. 2025).
± gives the uncertainty stated by the source.

B1: Zinc finger MYM-type protein 3, residues 589 to 668; numbered along this chain, Q14202 (parent)
chain: LSCHYCHSLFSGKPEVLDWQDQVFQFCCRDCCEDFKRLRGVVSQCEHCRQEKLLHEKLRFSGVEKSFCSEGCVLLYKQDF

Variants of: B1
Assay: abundance fitness (aPCA) (normalised: wild type 0, dead -1); higher = more abundant; growth selection in yeast, the domain comes from the species named
Details: Homo sapiens

| Variant | abundance fitness |
| --- | --- |
| LSCHYCHSLFSGKPEVLDWQDQVFQFCCRDCCEDFKRLRGVVSQCEHCRQEKLLHEKLQFSGVEKSFCSEGCVLLYKQDF | 0.11 ± 0.29 |
| LSCHYCHSLFSGKPEVLDWQDQVFQFCCRDCCEDFKRLRGVVSQCEHCRQEKLLHEKLEFSGVEKSFCSEGCVLLYKQDF | 0.386 ± 0.075 |
| LSCHYCHSLFSGKPEVLDWQDQVFQFCCRDCCEDFKRLRGVVSQCEHCRQEKLLHEKLGFSGVEKSFCSEGCVLLYKQDF | -0.261 ± 0.1 |
| LSCHYCHSLFSGKPEVLDWQDQVFQFCCRDCCEDFKRLRGVVSQCEHCRQEKLLHEKLWFSGVEKSFCSEGCVLLYKQDF | 0.336 ± 0.14 |
| LSCHYCHSLFSGKPEVLDWQDQVFQFCCRDCCEDFKRLRGVVSQCEHCRQEKLLHEKLTFSGVEKSFCSEGCVLLYKQDF | 0.631 ± 0.14 |
| LSCHYCHSLFSGKPEVLDWQDQVFQFCCRDCCEDFKRLRGVVSQCEHCRQEKLLHEKLCFSGVEKSFCSEGCVLLYKQDF | 0.514 ± 0.18 |
| LSCHYCHSLFSGKPEVLDWQDQVFQFCCRDCCEDFKRLRGVVSQCEHCRQEKLLHEKLLFSGVEKSFCSEGCVLLYKQDF | 0.251 ± 0.099 |
| LSCHYCHSLFSGKPEVLDWQDQVFQFCCRDCCEDFKRLRGVVSQCEHCRQEKLLHEKLAFSGVEKSFCSEGCVLLYKQDF | 0.22 ± 0.089 |
| LSCHYCHSLFSGKPEVLDWQDQVFQFCCRDCCEDFKRLRGVVSQCEHCRQEKLLHEKLSFSGVEKSFCSEGCVLLYKQDF | 0.541 ± 0.13 |
| LSCHYCHSLFSGKPEVLDWQDQVFQFCCRDCCEDFKRLRGVVSQCEHCRQEKLLHEKLVFSGVEKSFCSEGCVLLYKQDF | 0.306 ± 0.12 |
| LSCHYCHSLFSGKPEVLDWQDQVFQFCCRDCCEDFKRLRGVVSQCEHCRQEKLLHEKLDFSGVEKSFCSEGCVLLYKQDF | 0.257 ± 0.11 |
| LSCHYCHSLFSGKPEVLDWQDQVFQFCCRDCCEDFKRLRGVVSQCEHCRQEKLLHEKLKFSGVEKSFCSEGCVLLYKQDF | 0.419 ± 0.13 |
| LSCHYCHSLFSGKPEVLDWQDQVFQFCCRDCCEDFKRLRGVVSQCEHCRQEKLLHEKLNFSGVEKSFCSEGCVLLYKQDF | 0.609 ± 0.27 |
| LSCHYCHSLFSGKPEVLDWQDQVFQFCCRDCCEDFKRLRGVVSQCEHCRQEKLLWEKLRFSGVEKSFCSEGCVLLYKQDF | -0.334 ± 0.17 |
| LSCHYCHSLFSGKPEVLDWQDQVFQFCCRDCCEDFKRLRGVVSQCEHCRQEKLLTEKLRFSGVEKSFCSEGCVLLYKQDF | 0.431 ± 0.09 |
| LSCHYCHSLFSGKPEVLDWQDQVFQFCCRDCCEDFKRLRGVVSQCEHCRQEKLLVEKLRFSGVEKSFCSEGCVLLYKQDF | -0.006 ± 0.14 |
| LSCHYCHSLFSGKPEVLDWQDQVFQFCCRDCCEDFKRLRGVVSQCEHCRQEKLLYEKLRFSGVEKSFCSEGCVLLYKQDF | 0.223 ± 0.38 |
| LSCHYCHSLFSGKPEVLDWQDQVFQFCCRDCCEDFKRLRGVVSQCEHCRQEKLLHVKLRFSGVEKSFCSEGCVLLYKQDF | 0.548 ± 0.082 |
| LSCHYCHSLFSGKPEVLDWQDQVFQFCCRDCCEDFKRLRGVVSQCEHCRQEKLLHPKLRFSGVEKSFCSEGCVLLYKQDF | -0.288 ± 0.26 |
| LSCHYCHSLFSGKPEVLDWQDQVFQFCCRDCCEDFKRLRGVVSQCEHCRQEKLLHTKLRFSGVEKSFCSEGCVLLYKQDF | -0.091 ± 0.29 |
| LSCHYCHSLFSGKPEVLDWQDQVFQFCCRDCCEDFKRLRGVVSQCEHCRQEKLLHHKLRFSGVEKSFCSEGCVLLYKQDF | -0.161 ± 0.32 |
| LSCHYCHSLFSGKPEVLDWQDQVFQFCCRDCCEDFKRLRGVVSQCEHCRQEKLLHGKLRFSGVEKSFCSEGCVLLYKQDF | -0.47 ± 0.11 |
| LSCHYCHSLFSGKPEVLDWQDQVFQFCCRDCCEDFKRLRGVVSQCEHCRQEKLLHQKLRFSGVEKSFCSEGCVLLYKQDF | -0.112 ± 0.14 |

| Variant | abundance fitness |
| --- | --- |
| LSCHYCHSLFSGKPEVLDWQDQVFQFCCRDCCEDFKRLRGVVSQCEHCRQEKLLHCKLRFSGVEKSFCSEGCVLLYKQDF | -0.041 ± 0.32 |
| LSCHYCHSLFSGKPEVLDWQDQVFQFCCRDCCEDFKRLRGVVSQCEHCRQEKLLHSKLRFSGVEKSFCSEGCVLLYKQDF | -0.299 ± 0.16 |
| LSCHYCHSLFSGKPEVLDWQDQVFQFCCRDCCEDFKRLRGVVSQCEHCRQEKLLHFKLRFSGVEKSFCSEGCVLLYKQDF | 0.467 ± 0.23 |
| LSCHYCHSLFSGKPEVLDWQDQVFQFCCRDCCEDFKRLRGVVSQCEHCRQEKLLHMKLRFSGVEKSFCSEGCVLLYKQDF | -0.22 ± 0.22 |
| LSCHYCHSLFSGKPEVLDWQDQVFQFCCRDCCEDFKRLRGVVSQCEHCRQEKLLHYKLRFSGVEKSFCSEGCVLLYKQDF | -0.01 ± 0.5 |
| LSCHYCHSLFSGKPEVLDWQDQVFQFCCRDCCEDFKRLRGVVSQCEHCRQEKLLHLKLRFSGVEKSFCSEGCVLLYKQDF | 0.131 ± 0.12 |
| LSCHYCHSLFSGKPEVLDWQDQVFQFCCRDCCEDFKRLRGVVSQCEHCRQEKLLHRKLRFSGVEKSFCSEGCVLLYKQDF | -0.006 ± 0.084 |
| LSCHYCHSLFSGKPEVLDWQDQVFQFCCRDCCEDFKRLRGVVSQCEHCRQEKLLHEKHRFSGVEKSFCSEGCVLLYKQDF | 0.542 ± 0.28 |
| LSCHYCHSLFSGKPEVLDWQDQVFQFCCRDCCEDFKRLRGVVSQCEHCRQEKLLHEKRRFSGVEKSFCSEGCVLLYKQDF | 0.148 ± 0.08 |
| LSCHYCHSLFSGKPEVLDWQDQVFQFCCRDCCEDFKRLRGVVSQCEHCRQEKLLHEKSRFSGVEKSFCSEGCVLLYKQDF | -0.254 ± 0.17 |
| LSCHYCHSLFSGKPEVLDWQDQVFQFCCRDCCEDFKRLRGVVSQCEHCRQEKLLHEKTRFSGVEKSFCSEGCVLLYKQDF | -0.364 ± 0.18 |
| LSCHYCHSLFSGKPEVLDWQDQVFQFCCRDCCEDFKRLRGVVSQCEHCRQEKLLHEKCRFSGVEKSFCSEGCVLLYKQDF | -0.179 ± 0.28 |
| LSCHYCHSLFSGKPEVLDWQDQVFQFCCRDCCEDFKRLRGVVSQCEHCRQEKLLHEKERFSGVEKSFCSEGCVLLYKQDF | 0.094 ± 0.15 |
| LSCHYCHSLFSGKPEVLDWQDQVFQFCCRDCCEDFKRLRGVVSQCEHCRQEKLLHEKARFSGVEKSFCSEGCVLLYKQDF | 0.158 ± 0.089 |
| LSCHYCHSLFSGKPEVLDWQDQVFQFCCRDCCEDFKRLRGVVSQCEHCRQEKLLHEKVRFSGVEKSFCSEGCVLLYKQDF | 0.544 ± 0.089 |
| LSCHYCHSLFSGKPEVLDWQDQVFQFCCRDCCEDFKRLRGVVSQCEHCRQEKLLHEKGRFSGVEKSFCSEGCVLLYKQDF | 0.012 ± 0.082 |
| LSCHYCHSLFSGKPEVLDWQDQVFQFCCRDCCEDFKRLRGVVSQCEHCRQEKLLHEKFRFSGVEKSFCSEGCVLLYKQDF | 0.065 ± 0.28 |
| LSCHYCHSLFSGKPEVLDWQDQVFQFCCRDCCEDFKRLRGVVSQCEHCRQEKLLHEKQRFSGVEKSFCSEGCVLLYKQDF | -0.146 ± 0.19 |
| LSCHYCHSLFSGKPEVLDWQDQVFQFCCRDCCEDFKRLRGVVSQCEHCRQEKLLHEKWRFSGVEKSFCSEGCVLLYKQDF | -0.23 ± 0.14 |
| LSCHYCHSLFSGKPEVLDWQDQVFQFCCRDCCEDFKRLRGVVSQCEHCRQEKLLHEKLRESGVEKSFCSEGCVLLYKQDF | 0.256 ± 0.1 |
| LSCHYCHSLFSGKPEVLDWQDQVFQFCCRDCCEDFKRLRGVVSQCEHCRQEKLLHEKLRLSGVEKSFCSEGCVLLYKQDF | 0.103 ± 0.11 |
| LSCHYCHSLFSGKPEVLDWQDQVFQFCCRDCCEDFKRLRGVVSQCEHCRQEKLLHEKLRRSGVEKSFCSEGCVLLYKQDF | -0.327 ± 0.12 |
| LSCHYCHSLFSGKPEVLDWQDQVFQFCCRDCCEDFKRLRGVVSQCEHCRQEKLLHEKLRMSGVEKSFCSEGCVLLYKQDF | 0.079 ± 0.27 |

| Variant | abundance fitness |
| --- | --- |
| LSCHYCHSLFSGKPEVLDWQDQVFQFCCRDCCEDFKRLRGVVSQCEHCRQEKLLHEKLRGSGVEKSFCSEGCVLLYKQDF | -0.314 ± 0.097 |
| LSCHYCHSLFSGKPEVLDWQDQVFQFCCRDCCEDFKRLRGVVSQCEHCRQEKLLHEKLRQSGVEKSFCSEGCVLLYKQDF | -0.069 ± 0.13 |
| LSCHYCHSLFSGKPEVLDWQDQVFQFCCRDCCEDFKRLRGVVSQCEHCRQEKLLHEKLRPSGVEKSFCSEGCVLLYKQDF | 0.113 ± 0.13 |
| LSCHYCHSLFSGKPEVLDWQDQVFQFCCRDCCEDFKRLRGVVSQCEHCRQEKLLHEKLRSSGVEKSFCSEGCVLLYKQDF | 0.059 ± 0.12 |
| LSCHYCHSLFSGKPEVLDWQDQVFQFCCRDCCEDFKRLRGVVSQCEHCRQEKLLHEKLRASGVEKSFCSEGCVLLYKQDF | -0.034 ± 0.11 |
| LSCHYCHSLFSGKPEVLDWQDQVFQFCCRDCCEDFKRLRGVVSQCEHCRQEKLLHEKLRCSGVEKSFCSEGCVLLYKQDF | -0.503 ± 0.29 |
| LSCHYCHSLFSGKPEVLDWQDQVFQFCCRDCCEDFKRLRGVVSQCEHCRQEKLLHEKLRDSGVEKSFCSEGCVLLYKQDF | -0.529 ± 0.36 |
| LSCHYCHSLFSGKPEVLDWQDQVFQFCCRDCCEDFKRLRGVVSQCEHCRQEKLLHEGLRFSGVEKSFCSEGCVLLYKQDF | -0.493 ± 0.11 |
| LSCHYCHSLFSGKPEVLDWQDQVFQFCCRDCCEDFKRLRGVVSQCEHCRQEKLLHETLRFSGVEKSFCSEGCVLLYKQDF | 0.05 ± 0.2 |
| LSCHYCHSLFSGKPEVLDWQDQVFQFCCRDCCEDFKRLRGVVSQCEHCRQEKLLHEILRFSGVEKSFCSEGCVLLYKQDF | 0.297 ± 0.17 |
| LSCHYCHSLFSGKPEVLDWQDQVFQFCCRDCCEDFKRLRGVVSQCEHCRQEKLLHEPLRFSGVEKSFCSEGCVLLYKQDF | -0.804 ± 0.26 |
| LSCHYCHSLFSGKPEVLDWQDQVFQFCCRDCCEDFKRLRGVVSQCEHCRQEKLLHECLRFSGVEKSFCSEGCVLLYKQDF | -0.433 ± 0.41 |
| LSCHYCHSLFSGKPEVLDWQDQVFQFCCRDCCEDFKRLRGVVSQCEHCRQEKLLHEVLRFSGVEKSFCSEGCVLLYKQDF | -0.192 ± 0.12 |
| LSCHYCHSLFSGKPEVLDWQDQVFQFCCRDCCEDFKRLRGVVSQCEHCRQEKLLHESLRFSGVEKSFCSEGCVLLYKQDF | -0.361 ± 0.15 |
| LSCHYCHSLFSGKPEVLDWQDQVFQFCCRDCCEDFKRLRGVVSQCEHCRQEKLLHEELRFSGVEKSFCSEGCVLLYKQDF | -0.256 ± 0.17 |
| LSCHYCHSLFSGKPEVLDWQDQVFQFCCRDCCEDFKRLRGVVSQCEHCRQEKLLHEQLRFSGVEKSFCSEGCVLLYKQDF | -0.131 ± 0.14 |
| LSCHYCHSLFSGKPEVLDWQDQVFQFCCRDCCEDFKRLRGVVSQCEHCRQEKLLHEALRFSGVEKSFCSEGCVLLYKQDF | -0.487 ± 0.14 |
| LSCHYCHSLFSGKPEVLDWQDQVFQFCCRDCCEDFKRLRGVVSQCEHCRQEKLLHERLRFSGVEKSFCSEGCVLLYKQDF | 0.092 ± 0.086 |
| LSCHYCHSLFSGKPEVLDWQDQVFQFCCRDCCEDFKRLRGVVSQCEHCRQEKLLHEWLRFSGVEKSFCSEGCVLLYKQDF | -0.756 ± 0.2 |
| LSCHYCHSLFSGKPEVLDWQDQVFQFCCRDCCEDFKRLRGVVSQCEHCRQEKLLHELLRFSGVEKSFCSEGCVLLYKQDF | -0.016 ± 0.15 |
| LSCHYCHSLFSGKPEVLDWQDQVFQFCCRDCCEDFKRLRGVVSQCEHCRQEKLLHEFLRFSGVEKSFCSEGCVLLYKQDF | -0.16 ± 0.41 |
| LSCHYCHSLFSGKPEVLDWQDQVFQFCCRDCCEDFKRLRGVVSQCEHCRQEKLLHENLRFSGVEKSFCSEGCVLLYKQDF | -0.237 ± 0.23 |
| LSCHYCHSLFSGKPEVLDWQDQVFQFCCRDCCEDFKRLRGVVSQCEHCRQEKLLHEDLRFSGVEKSFCSEGCVLLYKQDF | 0.159 ± 0.37 |
